Molecular target: N-terminal FMN-binding domain of human methionine synthase reductase (ΔCMTRR, residues 1 to 231) (UniProt Q9UBK8)
Assay: stopped-flow absorption spectroscopy; MTR•cob(II)alamin (40 μM) rapidly mixed with ΔCMTRRhq (70 μM) in Buffer D (100 mM potassium phosphate, pH 7.4), anaerobic, 24 °C; increase in absorbance at 464 nm (loss of His-785 coordination) over 60 s, double exponential fit
Conditions: other: stopped-flow absorption spectroscopy

N-terminal FMN-binding domain of human methionine synthase reductase (ΔCMTRR, residues 1 to 231), sequence (Q9UBK8 1-231, stated change not applied): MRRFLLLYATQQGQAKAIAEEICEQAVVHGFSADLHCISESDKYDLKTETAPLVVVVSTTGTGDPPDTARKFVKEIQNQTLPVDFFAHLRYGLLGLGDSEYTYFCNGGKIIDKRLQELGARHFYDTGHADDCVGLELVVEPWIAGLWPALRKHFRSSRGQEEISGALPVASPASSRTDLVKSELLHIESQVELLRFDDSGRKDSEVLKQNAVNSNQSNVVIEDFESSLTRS
P1173L variant of human methionine synthase (MTR), full-length recombinant, sequence (chain, as listed by the source P1173L): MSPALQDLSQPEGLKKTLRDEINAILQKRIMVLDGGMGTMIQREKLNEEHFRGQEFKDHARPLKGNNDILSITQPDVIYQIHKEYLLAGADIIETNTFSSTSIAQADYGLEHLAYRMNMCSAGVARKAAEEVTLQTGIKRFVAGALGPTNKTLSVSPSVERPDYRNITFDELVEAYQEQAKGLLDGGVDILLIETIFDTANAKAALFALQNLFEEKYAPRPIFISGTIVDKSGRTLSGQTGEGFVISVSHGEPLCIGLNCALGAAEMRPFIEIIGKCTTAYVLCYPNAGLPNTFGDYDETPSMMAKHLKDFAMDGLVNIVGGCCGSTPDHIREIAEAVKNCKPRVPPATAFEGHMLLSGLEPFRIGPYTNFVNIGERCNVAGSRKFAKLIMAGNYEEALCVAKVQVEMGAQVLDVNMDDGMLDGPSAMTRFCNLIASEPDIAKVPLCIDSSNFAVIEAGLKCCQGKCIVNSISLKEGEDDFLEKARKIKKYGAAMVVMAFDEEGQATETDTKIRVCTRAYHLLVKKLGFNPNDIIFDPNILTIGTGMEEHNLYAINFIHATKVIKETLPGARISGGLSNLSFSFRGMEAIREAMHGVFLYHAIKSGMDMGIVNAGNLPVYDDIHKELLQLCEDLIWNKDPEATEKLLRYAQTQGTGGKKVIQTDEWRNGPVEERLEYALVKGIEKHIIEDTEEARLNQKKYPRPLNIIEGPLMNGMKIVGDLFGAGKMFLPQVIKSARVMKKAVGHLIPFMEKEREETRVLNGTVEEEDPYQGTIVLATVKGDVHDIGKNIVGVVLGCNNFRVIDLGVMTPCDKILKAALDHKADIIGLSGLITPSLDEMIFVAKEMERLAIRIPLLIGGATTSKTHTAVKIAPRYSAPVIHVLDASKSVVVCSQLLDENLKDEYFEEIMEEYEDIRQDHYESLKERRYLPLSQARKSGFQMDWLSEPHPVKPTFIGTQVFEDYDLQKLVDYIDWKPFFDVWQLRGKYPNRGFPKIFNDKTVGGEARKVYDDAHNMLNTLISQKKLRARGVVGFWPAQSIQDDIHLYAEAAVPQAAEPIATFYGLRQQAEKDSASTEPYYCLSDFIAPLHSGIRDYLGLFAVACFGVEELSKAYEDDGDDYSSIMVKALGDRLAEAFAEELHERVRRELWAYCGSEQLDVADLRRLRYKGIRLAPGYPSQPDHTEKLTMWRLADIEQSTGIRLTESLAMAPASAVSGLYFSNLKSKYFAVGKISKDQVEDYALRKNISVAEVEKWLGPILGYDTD
Human methionine synthase (MTR), wild-type, full-length recombinant, sequence (chain, as listed by the source): as the sequence (chain, as listed by the source P1173L) above, with L1173P counted along it

Substance	observed rate constant for complex formation (kobs)
Human methionine synthase (MTR), wild-type, full-length recombinant	the observed rate constant for complex formation was 0.1 ± 0.01 s^−1
P1173L variant of human methionine synthase (MTR), full-length recombinant	the observed rate constant for complex formation was 0.1 ± 0.01 s^−1
